Experimental findings from US20240228986A1, “ENGINEERED CELLS, ENZYMES, AND METHODS FOR PRODUCING CANNABINOIDS” (priority 2021, published 2024) are described below.

The test system of one assay is divarinic acid. The assay is described as follows: MPT fusions with GPS1.1 vs unfused MPTs, DVA feed (Example 9, Table 11). Format: cell-based, Yarrowia. The settings on record: 2 mM divarinic acid. How it is done: As described below, plasmids pCL-SE-0406, pCL-SE-0664, pCL-SE-0663, pCL-SE-0662, pCL-SE-0380 (MPT4), pCL-SE-0337.MPT21, were transformed into strain sCL-SE-0128. Multiple colonies per transformation were precultured for 48 h in YNB containing glucose (2%), casamino acids (0.5%), and MES (100 mM pH 6.5). Pre-culture was used to inoculate assay medium comprised of YNB containing glucose (2%), casamino acids (0.5%), MES (100 mM pH 6.5), and divarinic acid (2 mM). Cultures were quenched after 48 h total growth and assayed for CBGVA and FCBGVA. Averages and standard deviations were calculated from replicates.
(§1) Overnight YPD (10 g/L yeast extract, 20 g/L peptone, 2% dextrose) cultures were inoculated from glycerol stocks of the appropriate strain and grown at 30° C. with 250 rpm shaking. Once cultures had reached an OD600 of 4-6, cultures were centrifuged at 500×g for 5 min, supernatants were discarded, and cell pellets were resuspended in equal volume of water. Resuspended cells were centrifuged at 500×g for 5 min, supernatants were discarded, and cells were resuspended in a volume (75 μL×OD×Vculture) of transformation cocktail (45% PEG-400, 0.1 M LiAc, 0.1 M DTT, and 25 ug/100 μL SS Salmon Sperm DNA). For each transformation, >1 μg of plasmid DNA was added to 55 μL cells/transformation cocktail and vortexed for 2 s. Transformations were incubated at 39° C. for 1 h with 250 rpm shaking. Transformations were resuspended in 750 μL YPD with 1 M sorbitol and recovered at 30° C. overnight with 250 rpm shaking. The next day, transformations were centrifuged at 500×g for 5 min, supernatants were discarded, and cell pellets were resuspended in 750 YPD. Resuspended transformations were plated on YPD with appropriate selection or YNBD (6.71 g/L yeast nitrogen base+nitrogen, 0.5% casamino acids, 2% dextrose) agar plates and grown at 30° C. for 2 days. Individual colonies were patched onto YPD plates with appropriate selection or YNBD plates and grown at 30° C. overnight. Patches were used to inoculate 0.5 mL YPD with appropriate selection or YNBD precultures in 96 w blocks and grown at 30° C. for 24-48 h with 1000 rpm shaking. For assays, 0.5 mL YPD with appropriate selection or YNBD cultures containing substrate were inoculated with 2 μL from precultures and grown at 30° C. for 2-4 days with 1000 rpm shaking with 2% glucose added every 24 h. Assay cultures were quenched by addition of 0.5 mL ethanol with 0.2% formic acid and 0.5 mg/mL pentyl-benzoic acid. Precipitates were pelleted by centrifuging at 4600×g for 10 min and then 200 μL was transferred to fresh plates, sealed, and analyzed via HPLC.
(§2) All samples were quenched with equal volume of EtOH containing 0.2 mg/mL internal standard (3,5-Diisopropyl-2-hydroxybenzoic acid CAS #2215-21-6) centrifuged, and clarified solutions were analyzed by HPLC-MS
(§3) • Column: 2.1×50 mm COSMOCORE PBr (Nacalai USA, Inc.) • Mobile Phase: A; 0.1% formic acid in water, B; 0.1% formic acid in acetonitrile • Flow: 0.45 mL/min • Temp: % 50 Celsius • Gradient: 20%B at 0 min, 70%B at 2.3 min, 89% B at 4.2 min, 20% B at 4.3 min, 20%B at 6 min

The test system of assay [1] is olivetolic acid. The assay is described as follows: Screening of MPT library hits in Yarrowia, OA feed (Example 2). The format is cell-based. The settings on record: OA Feed (48 h). How it is done: (§4) As described in detail below, plasmid pCL-SE-0337.MPT21,26,31 were transformed into strain sCL-SE-0128 and 4 separate colonies of each were patched and precultured for 48 h. Assay cultures consisted of minimal media with 100 mM MES pH 6.5, 0.5% ethanol and 2 mM olivetolic or divarinic acid (DVA). Cultures with olivetolic acid were quenched with equal volume of ethanol after 48 h total growth while cultures with DVA with quenched after 96 h total growth. Enzymes produced CBGA and FCBGA from olivetolic acid and CBGVA and FCBGVA from DVA. Averages and standard deviations were calculated from replicates.
as §1, §2, §3

Assay [2] concerns olivetolic acid. Nature of the assay: MPT fusions with GPS1.1 vs unfused MPTs, OA feed (Example 8, Table 9). The format is cell-based, Yarrowia. To be noted: 2 mM olivetolic acid, 48 h quench. The method in brief:
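Yeast strain sCL-SE-0128 carrying MPT or GPS1.1–MPT fusion plasmids, precultured 48 h in YNB/2% glucose/0.5% casamino acids/100 mM MES pH 6.5. Assay medium was the same plus 2 mM olivetolic acid, 30 °C. Cultures were ethanol-quenched at 48 h total growth, and CBGA and FCBGA were measured by HPLC-MS with internal standard; values are replicate means ± SD.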

A further assay deals with divarinic acid (DVA). Nature of the assay: Screening of MPT library hits in Yarrowia, DVA feed (Example 2). Format: cell-based. To be noted: DVA Feed (96 h). How it is done: as §4, §1, §2, §3
[3] abbreviates: 2% glucose, quenched after 48 h, strain sCL-SE-0128.

B1: MPT21 (protein)
chain: MSDNSIATKILNFGHTCWKLQRPYVVKGMISIACGLFGKELLHNTNLISWGLMWKAFFALVPILSFNFFAAIMNQIYDVDIDRINKPDLPLVSGEMSIETAWILSIIVALTGLIVTIKLKSAPLFVFIYIFGIFAGFAYSVPPIRWKQNPSTNFLITISSHVGLAFTSYYASRAALGLPFELRPSFTFLLAFMTVMGMTIAFAKDISDIEGDAKYGVSTVATKLGARNMTFVVSGVLLLNYVAAILAGIIWPQAFNSNVMLLSHAILAFCLIFQTRELALANYASAPSRQFFEFIWLLYYAEYFVYVFI
modifications: MPT21 (recombinant membrane-bound prenyltransferase)
With B1, the CBGVA worked out at 9 ± 3 µM in the assay with divarinic acid (setting [3]) and 647 ± 45 µM with divarinic acid (DVA) (2 mM DVA, minimal media, 0.5% ethanol, strain sCL-SE-0128, product accumulated). This molecule also came in with an FCBGVA with divarinic acid (setting [3]) of 1 ± 1 µM. For the same molecule, the CBGVA/FCB in the assay on divarinic acid (48 h, product ratio) was 10.8. Besides, the CBGA in the assay on olivetolic acid [1] (2 mM olivetolic acid, minimal media, 0.5% ethanol, strain sCL-SE-0128, product accumulated) was determined as 310 ± 11 µM; in the assay on olivetolic acid [2] (2% glucose, strain sCL-SE-0128) it was 109 ± 27 µM. Moreover, the CBGA/FCBGA came to 3.1 in the assay with olivetolic acid [1] (product ratio) and 2.6 with olivetolic acid [2] (product ratio). The FCBGA in the assay on olivetolic acid [2] (2% glucose, strain sCL-SE-0128) came to 43 ± 10 µM. Besides, the CBGVA/FCBGVA in the assay with divarinic acid (DVA) (product ratio) turned out to be 6.0.
